The values that follow come from publication PMC13056932 (Nature Communications, 2026).

In data set [1] the target is large tegument protein VP1/2 (ORF22) (Varicella-zoster virus (parental Oka strain)) (UniProt P09278). As to the kind of experiment: cryo-EM structure.
The data set “cryo-EM structure” deals with the molecule itself. As to the kind of experiment: cryo-EM structure.

Turning to “large tegument protein VP1/2 (ORF22), P09278 1-2763”, the stoichiometry N in data set [1] is 2.

B1: capsid triplex protein 2 (TRX2; ORF41) (natural protein, UniProt P09291 1-316, looked up)
chain: MAMPFEIEVLLPGELSPAETSALQKCEGKIITFSTLRHRASLVDIALSSYYINGAPPDTLSLLEAYRMRFAAVITRVIPGKLLAHAIGVGTPTPGLFIQNTSPVDLCNGDYICLLPPVFGSADSIRLDSVGLEIVFPLTIPQTLMREIIAKVVARAVERTAAGAQILPHEVLRGADVICYNGRRYELETNLQHRDGSDAAIRTLVLNLMFSINEGCLLLLALIPTLLVQGAHDGYVNLLIQTANCVRETGQLINIPPMPRIQDGHRRFPIYETISSWISTSSRLGDTLGTRAILRVCVFDGPSTVHPGDRTAVIQV
For B1, in the data set “cryo-EM structure”, the “stoichiometry N” value is 2.

B2: capsid vertex-specific component 2 (CVC2; ORF34) (natural protein, UniProt P09287 1-579, looked up)
chain: MTARYGFGSISFPNKCGIFLSTTKNFIAPNFPIHYWTAPAFELRGRMNPDLEKNTLTLKNAAAVAALDNLRGETITLPTEIDRRLKPLEEQLTRMAKVLDSLETAAAEAEEADAQSEECTRTEIIRNESIHPEVQIAKNDAPLQYDTNFQVDFITLVYLGRARGNNSPGIVFGPWYRTLQERLVLDRPVAARGVDCKDGRISRTFMNTTVTCLQSAGRMYVGDRAYSAFECAVLCLYLMYRTSNSVHEPQVSSFGNLIEHLPEYTETFVNYMTTHENKNSYQFCYDRLPRDQFHARGGRYDQGALTSHSVMDALIRLQVLPPAPGQFNPGVNDIIDRNHTAYVDKIQQAAAAYLERAQNVFLMEDQTLLRLTIDTITALLLLRRLLWNGNVYGDKLKNNFQLGLIVSEATGTPTNNVILRGATGFDGKFKSGNNNFQFLCERYIAPLYTLNRTTELTEMFPGLVALCLDAHTQLSRGSLGRTVIDISSGQYQDRLISLIALELEHRRQNVTSLPIAAVVSIHDSVMLQYERGLGMLMHQPRVRAALEESRRLAQFNVNSDYDLLYFVCLGVIPQFASTP
Regarding B2, the “stoichiometry N” value in the data set “cryo-EM structure” amounted to 2.
